{"source": "the nanobody polyreactivity screen of Harvey et al. (2022)"}
{"assay": "yeast display, Sf9 membrane polyspecificity reagent, FACS + sequencing; frameworks hold sequencing errors", "outline": "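Using colony PCR, genes from sorted yeast display clones were amplified, then sequenced on MiSeq at 2 × 250 and filtered by CDR length. The clones had been stained with 10% biotinylated, detergent-solubilized Sf9 membrane reagent for 1 hour at 4 °C and sorted by FACS into low and high (top ~1%) gates on anti-HA and streptavidin fluorescence. Polyreactivity labels come from the gate of origin.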"}
{"sequence": "QVQLVESGGGLVQAGGSLRLSCAASGRTFGVYAMGWYRQAPGKERELVASISRSGGSTYYADSVKGRFTISRDNAKNTVYLQMNSLKPEDTAVYYCAAVYKRGMDYWGQGTQVTVSS", "polyreactivity (PSR sort gate)": "high polyreactivity"}
{"sequence": "QVQLVESGGGLVQAGGSLRLSCAASGSTFKAYAMGWYRQAPGKERELVAAITRRGTSTYYADSVKGRFTISRDNAKNTVYLQMNSLKPEDTAVYYCNAKYVSDRSSAVSFDYWGQGTQVTVSS", "polyreactivity (PSR sort gate)": "low polyreactivity"}
{"sequence": "QVQLVESGGGLVQAGGSLRLSCAASGSIFIAYGMVWYRQEPGKERELVAAITVSGGNTYYADSVKGRFTISRDNAKNTVYLQMNSLKPEDTAVYYCAADYWYYYGKVLYDYWGQGTQVTVSS", "polyreactivity (PSR sort gate)": "low polyreactivity"}
{"sequence": "QVQLVESGGGLVQAGGSLRLSCAASGRTFKPYAMGWYRQAPGKERELVAVITSNGSSTYYADSVKGRFTISRDNAKNTVYLQMNSLKPEDTAVYYCATKLTYTLTSGAYAYDYWGQGTQVTLSS", "polyreactivity (PSR sort gate)": "low polyreactivity"}
{"sequence": "QVQLVESGGGLVQAGGRLRLSCAASGSTLSLYDMGRYRQAPGKERELVAAITSSGGTYYADSVKGRFTISRDNAKNTVFLQMKSLKPEDTAVYYCNAYAKDARSYGFHRVNYWGQGTQVTVSS", "polyreactivity (PSR sort gate)": "high polyreactivity"}
{"sequence": "QVQLVESGGALVQAGGSLRISCAASGRTFQVNTMGWYRQAPGKEMELVAAISSAGRTYYADSVKGRFTISRDNAKNTVYLQMNSLKPEDTAVYYCSAAWSYSYWKARYGYWGQGTQVTVSS", "polyreactivity (PSR sort gate)": "high polyreactivity"}
{"sequence": "QVQLVESVGGLVQAGGSLRLSCAASGVIFYFYTMGWSRQAPGKERELVAGITWSGDSTYYADSVKGRFTISRDNAKNTVYLQMNSLTPEDTAVYYCAAGFDFGTRVSKGYDYWGHGTQVTVSS", "polyreactivity (PSR sort gate)": "low polyreactivity"}
{"sequence": "QVQLVESGGGLVQAGGSLRLSWAASGRTFGVYAMGWYRQAPGTERELVATITRSGGRTYYADSVKGRFTLSRDTAKNTVYLQMNSLKPEATAVYYCNAGHGSLRYNYWGQGTQVTVSS", "polyreactivity (PSR sort gate)": "high polyreactivity"}
{"sequence": "QVQLVESGGGLVQAGGSLRLSCAASGFIFRNYVMGWKRPAPGKERELVADITFSGGGTYYADSVKGRFTISRDNAKNTVYLLMNSLIPEDTAVYYCAVYWNWQYDYCGQGTQVTVSS", "polyreactivity (PSR sort gate)": "high polyreactivity"}
{"sequence": "QVQLVESGGGLVQAGGSLRLSCAASGITFGPYAMGWYRQAPGKERELVAAITWGGGSTYYADSVKGRFTISRDNAKNTVYFQMNSLKPEDTAVYYCAASVEWYGWYPYDFWGQGTQVTVSS", "polyreactivity (PSR sort gate)": "low polyreactivity"}
{"sequence": "QVQLVESGGGLVQAGGSHRLSCAASGRIFALNAMGWYRQAPGKERELVDAIDTSSGDTYYADSVKGRFTISRDNAKNTVNLQMNCLKPEDTAVYYCAAEGLSPYAYVFSNYDYWGQGTQVTVSS", "polyreactivity (PSR sort gate)": "low polyreactivity"}
{"sequence": "QVQLVESGGGLVQAGGSLRLSCAASGSILFLNAMGWYSQAPGKERELVASITDSGGGTYYADSVKGRFTISRDNAKNTVYLQMNSLKPEDTAVYYCNARSRRPDDYWGQGTQVTVSS", "polyreactivity (PSR sort gate)": "low polyreactivity"}
{"sequence": "QVQLVESGGGLVQAGGSLRLSCAASGSTFRYNLMGWYRQAPGKERELVAAISAVGSTYYADSVKGRFTISRDNAKNTVYLQMNSLKAEDTAVYYCAASYDWRAYRRDFYYWLTGDYWGQGTQVTVSS", "polyreactivity (PSR sort gate)": "low polyreactivity"}
{"sequence": "QVHLEHSAGGLVQAGGILRLSSPASGSIVVTNAMGWYRQAPGKERELVAAISNSGSSTYYADSVKGRFTISRDNSKNTVYLQMNSLKPEDTAVYYCAADEPTWDWSYPYGYWGQGTQVTVSS", "polyreactivity (PSR sort gate)": "high polyreactivity"}
{"sequence": "QVQLVESGGGLVQAGGSLRLSCAASGRTLGGYTMGWYRQAPGKEREVVAGISFRGDSTYYADSVKGRFTLSRANAKNTVYLQMNSLKPEDTAVYYCNARGTPWRYGGDYWGQGTQVTVSS", "polyreactivity (PSR sort gate)": "low polyreactivity"}
{"sequence": "QVQLVESGGGLVQAGGSLRLSCAASGLTFYYNAMGWYRQAPGKERELVAAISRSGGSTYYADSVKGRFTISRDNAKNTVYLQMNSLKPEDTAVYYCAVGYVYTRKGRVQPVKYDYWGQGTQVTVSS", "polyreactivity (PSR sort gate)": "high polyreactivity"}
{"sequence": "QVQLVESRGCLVQAGVSLRLSCSASGSIFKIYAMGWYRQAPGKERELVATITGIADSTYYADSVKGRFTISRDNAKNTVYLLMNSLKPDDNAVYYCAADNYVADYDYWGQGTQVTVSS", "polyreactivity (PSR sort gate)": "low polyreactivity"}
{"sequence": "QVQLVESGGGLVQAGGSLRLTCAASGFIFRSYAMGWYRQAPGKERELVAVISRRGVNTHYADSVKGRFTISRDNAKNTVYLQMNSLKPEDTAVYYCAKGLTALGDYWGQGTQVTVSS", "polyreactivity (PSR sort gate)": "high polyreactivity"}
{"sequence": "QVQLVESGGGLVQAGGSLSLSCAASGRIFVRNTMGWYRQAPGKERELVATISRRGGITYYADSVKGRFTISRDNAKNTVYLQMNSLKPEDTAVYYCAAESYSFWLYDYCGQGTQVTVSS", "polyreactivity (PSR sort gate)": "high polyreactivity"}
{"sequence": "QVQLVESGGGLVQAGGRLRLSCAASGSTFGGNAMGWSRQAPGKERELVATISNSGGRTYYADSVKGRFTISRDNAKNTVYLQMNSLKPEDTAVYYCAADHPAFGPGYSFDYWGQGTQVTVSS", "polyreactivity (PSR sort gate)": "low polyreactivity"}
{"sequence": "QVQLVESGGGLVQAGGSLRLSCAASGSIFQVYAMGWYRQAPGKEREFVAAISYSGGGTYYADSVKGRFTISRDNAKNTVFLQMNSLKPEDTAVYYCAADVSGWEYDFWGLGTQVTVSS", "polyreactivity (PSR sort gate)": "low polyreactivity"}
{"sequence": "QVQLVESGGGLVQAGGSLRLSCAASGRIFFYYAMGWYRQAPGKERELVAAISNSGGGTYYADSVKGRFTISRDNAKNTVYLQMNSLKPEDTAVYYCAREAGRYAYKYYWWQRPDYDYWGQGTQVTVSS", "polyreactivity (PSR sort gate)": "low polyreactivity"}
{"sequence": "QVQLVESGGGLVQAGGSLRLSCAASGRIFNLYAMGWYRQAPGKERDLVAAINWSGDRTYYADSVKGRFTISRDNAKNTVYLQMNSLKPDDTAVYYCNADGLEIERYAYWYVFLGYDYWGQGTQVTVSS", "polyreactivity (PSR sort gate)": "low polyreactivity"}
{"sequence": "QVHFVESGGGLVQAGGSLSLSCAASGLTFSYYAMGWYRQAPGKERELVARISNSGGCTYYADSVKGRFTISRDNAKITVYLQMNSLKPEDTAVYYCAALHTSLHRNKYEYWGQGTQVTVSS", "polyreactivity (PSR sort gate)": "high polyreactivity"}
{"sequence": "QVQLVESGGGLVQAGGSLRLICSASGRIFSYNVMGWYRQAPGKEREVVAAITSNDGSTYYADSVKGRFTISRDNAKNTVYLQMNSLKPEDTAVYYCAAPYDYAEYYYWGQGTQVTVSS", "polyreactivity (PSR sort gate)": "low polyreactivity"}
{"sequence": "QLQLVESGGGLVQAGGSLRLSCAHSGRTFYVNAIGWSRQAPRKERELVATITDRGGRSYYADSVKGRFTISRDNAKNSVYLQMTSLKPEDTAVYYCAATRWYEVDYWGQGTQVTVSS", "polyreactivity (PSR sort gate)": "low polyreactivity"}
{"sequence": "QVQLVESGGGLVQAGGSLRLSCAASGRTFDFYAMGWYRQAPGKERELDAAITFSTGSTTYADSVKGRFTISRDNAKNTVYLQMNSLKPEDTAVYYCNAYLYRKFGYRAYDYWGQGTQVTVSS", "polyreactivity (PSR sort gate)": "low polyreactivity"}
{"sequence": "QVQLVESGGGLVQAGGSLRLSCAASGSTFVWYAMGWYRQAPGKEREFDATISWSDGSRYYADSVKGRFTISRDNAKNTVYLHMNSLKPEDPAVYYCASDVDRFFTYTYDYWGQGTQVTVSS", "polyreactivity (PSR sort gate)": "low polyreactivity"}
{"sequence": "QVQLVESGGGLVQAGGSLRLSCAASGSIFPKNAMGWYRQATGKERELVARISGSGGSTYYADSVKGRFTISRDNAKNTVYLQMNSLKPEDTAVYYCAKDQSKIYSSWSGYYYWGQGTQVTVSS", "polyreactivity (PSR sort gate)": "low polyreactivity"}
{"sequence": "QVQLVESGGGLVQAGGSLRLSFAASGRIFPHNAMGWYRQAPGKERELVAAISSNGGSTYYADSVKGRFTISRDNAKNTVYLQMNSLKPEDTAVYYCAKYRYFAGDGDYWGQGTQVTVSS", "polyreactivity (PSR sort gate)": "low polyreactivity"}
{"sequence": "QVQLVESGGGLVQAGGSLRLSCAASGSIFGGNAMGCYRQAPGKERELVAAITDGGNTNYADSVKGRFTISRDNAKNTVYLQMNSLKPEDTAVYYCAARMPGTYGGRYGYDYWGQGTQVTVSS", "polyreactivity (PSR sort gate)": "low polyreactivity"}
{"sequence": "QVQLVESGGGLVQAGGSLRLSCAASGSTFARYAMGWYRQAPGKERELVAAISRRGGSTYYADSVKGRFTISRDNAKNTVYLQMNSLKPEDTAVYYCAARYGIISSFEYDYWGQGTQVTVSS", "polyreactivity (PSR sort gate)": "high polyreactivity"}
{"sequence": "QVQLVESGGGLVQPGGSLRLSCAASGSIASYAMGWYRQAPGKERELVAGISWSGGSTYYADSVKGRFTISRDNAKNTVYLQMNSLKPEDTAVYYCNAYSAFVPPTRGYYWGQGTQVTVSS", "polyreactivity (PSR sort gate)": "high polyreactivity"}
{"sequence": "QVQLVESGGGLVQAGGSLRLSCAASGRTFLWYDMGWYRQAPGKERELVAGITSDGITYYADSVKGRFTISRDNAKNTVNLQMNSLKPEDTAVYYCAADGIYPDAVYFGYPMYYWGQGTQVTVSS", "polyreactivity (PSR sort gate)": "low polyreactivity"}
{"sequence": "QVQLVESGGGLVQAGGSLRLICDASGIIFYDYAMGWYRQAPGKERELVAAITSSGGSTYYADSVKGRFTISRDNAKNTVYLQMNSLKPEDTAVYYCAAATRGSGRRYDYWGQGTQVTLSS", "polyreactivity (PSR sort gate)": "high polyreactivity"}
{"sequence": "QVQLVEAGLGLVQAGGSLRLSCAASGFIFVANAMVWYRQAPGKERELVAAISFSSTSTRYADSVKGRFTISRDNAKNTVYLQMNSLKPEDTAVYYCAVDLTFSEFDYWGQGTQVTVSS", "polyreactivity (PSR sort gate)": "low polyreactivity"}
{"sequence": "QVQLVESGGGLVQAGGSLRLSCAASGSISQTYAMGWYRQAPGKERELVAAISSSGASTYYADSVKGRFTISRDNAKNTVYLQMNSLKPEDTAVYYCAVVPSSTYHSYDYWGQGTQVTVSS", "polyreactivity (PSR sort gate)": "high polyreactivity"}
{"sequence": "QVQLVESGGGLVQAGGSLRLSCAASGIIFRRYAMGWYRQAPGKERELVAAIRTSGGNTYYADSVKGRFTISRDNAKNTVYLQMNSLKPEDTAVYYCAARRHYTYGNGPSRGGQMDYWGQGTQVTVSS", "polyreactivity (PSR sort gate)": "high polyreactivity"}
{"sequence": "QVQLVESGGGLVQAGGSLRLSCAASGRIFWDNAMGWYRQAPGKERELVAAISDSVVITYYADSVKGRFTISRDNAKNTVYLQMNSLKPEDTAVYYCAADKRGSVYLSSFWMDYWGQGTQVTVSS", "polyreactivity (PSR sort gate)": "low polyreactivity"}
{"sequence": "QVQLVESGGGLVQAGGSLRLSCAASGRTFEYYAMGWYRQAPGKERELVAAIDSGGSTNYADSVKGRFTISRDNAKNTVYLQMNSLKPEDTAVYYCATEVDQNYNYDYWGQGTQVTVSS", "polyreactivity (PSR sort gate)": "low polyreactivity"}
